Data taken from PMC3258161.

Target: PL6S* (PvuII-L6-I-SceI* fusion enzyme: wt PvuII fused via linker L6 to I-SceIΔC9,D44N,D145A) (UniProt P03882)
Experiment: AUC

stoichiometry N: 2
Substance: PL6S* (PvuII-L6-I-SceI* fusion enzyme: wt PvuII fused via linker L6 to I-SceIΔC9,D44N,D145A) (from UniProt P03882 1-226)
